Measurements: patent publication US20240123088A1

Biological target: RmaDnaB-SpdCas9C (Rhodothermus marinus DnaB C-intein fused to the C-terminal split SpdCas9, HA-tagged) (Rhodothermus marinus (C-intein); Streptococcus pyogenes (dCas9 half)) (UniProt Q99ZW2)
Assay: cell-based or functional assay

## SpdCas9N-RmaDnaB (N-terminal split SpdCas9 fused to the Rhodothermus marinus DnaB N-intein, FLAG-tagged)
  in vivo reconstitution of tsdCas9, Western blot band intensity, mouse striatum co-transduced with AAV9: > 50%
